Where a chain is given by its changes, count along the chain named. In names and notes the source's numbering stands.
B1: v37879 (antibody, V domains shown)
VH: QVQLQESGPGLVKPSETLSLTCAVSGFSLTSYGVHWIRQPPGKGLEWLGVIWPGGGTNFNSALMSRLTISEDTSKNQVSLKLSSVTAADTAVYYCARDRAYGNYLYAMDYWGQGTLVTVSS
VL: DIQMTQSPSSLSASVGDRVTITCRASESVEYYVTSLMQWYQQKPGKAPKLLIYAASNVDSGVPSRFSGSGSGTDFTLTISSLQPEDIATYYCQQSRKAPFTFGGGTKVEIK
notes: OAA format as v34891; also called huTN228 V1114A (VL) OAA
B2: v37888 (antibody, V domains shown)
VH: B1 VH
VL: B1 VL with N57Q, A98V
notes: OAA format as v34891; also called huTN228 N1066Q (VL) OAA
B3: v37891 (antibody, V domains shown)
VH: B1 VH with L48I
VL: B1 VL with A98V
notes: OAA format as v34891; also called huTN228 L1053I (VH) OAA
B4: v37882 (antibody, V domains shown)
VH: B1 VH with S31T
VL: B1 VL with A98V
notes: OAA format as v34891; also called huTN228 S1036T (VH) OAA
B5: v37897 (antibody, V domains shown)
VH: B1 VH with V78F
VL: B1 VL with A98V
notes: OAA format as v34891; also called huTN228 V1087F (VH) OAA
B6: v37898 (antibody, V domains shown)
VH: B1 VH
VL: B1 VL with M37L, Q38N, A98V
notes: OAA format as v34891
B7: v37883 (antibody, V domains shown)
VH: B1 VH with N103Q
VL: B1 VL with A98V
notes: OAA format as v34891; also called huTN228 N1111AQ (VH) OAA
B8: v37884 (antibody, V domains shown)
VH: B1 VH with L105I
VL: B1 VL with A98V
notes: OAA format as v34891; also called huTN228 L1112AI (VH) OAA
B9: v37890 (antibody, V domains shown)
VH: B1 VH with A23T
VL: B1 VL with A98V
notes: OAA format as v34891; also called huTN228 A1024T (VH) OAA
B10: v37636 (trispecific antibody, human IgG1, lambda, L234A L235A)
heavy 1: QVQLVESGGGLVQPGGSLRLSCSVSGIDLSSNPMIWVRQAPGKGLQYIGIIDTDGSTYYADWAKGRFTISKDSTTVYLQINSPRAEDTAVYYCARRLHGSSNGYYDDLWGQGTLVTVSSGGGGSGGGGSGGGGSGGGGSDGQMTQSPSSVSASVGDRVTITCQASQSIYSYLSWYQQKPGQRPKLLIYKASTLASGVPSRFSGSGSGTDFTLTISSVQPEDFATYYCQQGYTVTNVDKNTFGGGTKVEIKGGGGSGEVQLVESGGGLVQPGGSLRLSCAASGVTFNYYGMSWIRQAPGKGLEWVASITSSGGRIYYPDSVKGRFTISRENTQKTLYLQMNSLRAEDTAVYYCTLDGRDGWVAYWGQGTLVTVSSASTKGPSVFPLAPSSKSTSGGTAALGCLVKDYFPEPVTVSWNSGALTSGVHTFPAVLQSSGLYSLSSVVTVPSSSLGTQTYICNVNHKPSNTKVDKKVEPKSCDKTHTCPPCPAPEAAGGPSVFLFPPKPKDTLMISRTPEVTCVVVSVSHEDPEVKFNWYVDGVEVHNAKTKPREEQYNSTYRVVSVLTVLHQDWLNGKEYKCKVSNKALPAPIEKTISKAKGQPREPQVYVYPPSRDELTKNQVSLTCLVKGFYPSDIAVEWESNGQPENNYKTTPPVLDSDGSFALVSKLTVDKSRWQQGNVFSCSVMHEALHNHYTQKSLSLSPGGGGGSGDIQMTQSPSSLSASVGDRVTITCRASESVEYYVTSLMQWYQQKPGKAPKLLIYAASNVDSGVPSRFSGSGSGTDFTLTISSLQPEDIATYYCQQSRKVPFTFGGGTKVEIKGGGGSGGGGSGGGGSGGGGSQVQLQESGPGLVKPSETLSLTCAVSGFSLTSYGVHWIRQPPGKGLEWLGVIWPGGGTNFNSALMSRLTISEDTSKNQVSLKLSSVTAADTAVYYCARDRAYGNYLYAMDYWGQGTLVTVSS
heavy 2: EPKSSDKTHTCPPCPAPEAAGGPSVFLFPPKPKDTLMISRTPEVTCVVVSVSHEDPEVKFNWYVDGVEVHNAKTKPREEQYNSTYRVVSVLTVLHQDWLNGKEYKCKVSNKALPAPIEKTISKAKGQPREPQVYVLPPSRDELTKNQVSLLCLVKGFYPSDIAVEWESNGQPENNYLTWPPVLDSDGSFFLYSKLTVDKSRWQQGNVFSCSVMHEALHNHYTQKSLSLSPG
light: NFMLTQPHSVSESPGKTVTISCKRNTGNIGSNYVNWYQQHEGSSPTTIIYRNDKRPDGVSDRFSGSIDRSSKSASLTISNLKTEDEADYFCQSYSSGFIFGGGTKLTVLGQPKAAPSVTLFPPSSEELQANKATLVCLISDFYPGAVTVAWKADSSPVKAGVETTTPSKQSNNKYAASSYLSLTPEQWKSHRSYSCQVTHEGSTVEKTVAPTECS
notes: second heavy chain is Fc only; Het Fc, FcKO; also called Cldn18.2xCD3xCD28 trispecific
B11: v37669 (bispecific antibody)
heavy 1: EVQLVESGGGLVQPGGSLRLSCAASGVTFNYYGMSWIRQAPGKGLEWVASITSSGGRIYYPDSVKGRFTISRENTQKTLYLQMNSLRAEDTAVYYCTLDGRDGWVAYWGQGTLVTVSSASTKGPSVFPLAPSSKSTSGGTAALGCLVKDYFPEPVTVSWNSGALTSGVHTFPAVLQSSGLYSLSSVVTVPSSSLGTQTYICNVNHKPSNTKVDKKVEPKSCDKTHTCPPCPAPEAAGGPSVFLFPPKPKDTLMISRTPEVTCVVVSVSHEDPEVKFNWYVDGVEVHNAKTKPREEQYNSTYRVVSVLTVLHQDWLNGKEYKCKVSNKALPAPIEKTISKAKGQPREPQVYVYPPSRDELTKNQVSLTCLVKGFYPSDIAVEWESNGQPENNYKTTPPVLDSDGSFALVSKLTVDKSRWQQGNVFSCSVMHEALHNHYTQKSLSLSPGGGGGSGNFMLTQPHSVSESPGKTVTISCKRNTGNIGSNYVNWYQQHEGSSPTTIIYRNDKRPDGVSDRFSGSIDRSSKSASLTISNLKTEDEADYFCQSYSSGFIFGGGTKLTVLGGGGSGGGGSGGGGSGGGGSEVQLVESGGGLVQPGGSLRLSCAASGVTFNYYGMSWIRQAPGKGLEWVASITSSGGRIYYPDSVKGRFTISRENTQKTLYLQMNSLRAEDTAVYYCTLDGRDGWVAYWGQGTLVTVSS
heavy 2: QVQLVESGGGLVQPGGSLRLSCSVSGIDLSSNPMIWVRQAPGKGLQYIGIIDTDGSTYYADWAKGRFTISKDSTTVYLQINSPRAEDTAVYYCARRLHGSSNGYYDDLWGQGTLVTVSSGGGGSGGGGSGGGGSGGGGSDGQMTQSPSSVSASVGDRVTITCQASQSIYSYLSWYQQKPGQRPKLLIYKASTLASGVPSRFSGSGSGTDFTLTISSVQPEDFATYYCQQGYTVTNVDKNTFGGGTKVEIKAAEPKSSDKTHTCPPCPAPEAAGGPSVFLFPPKPKDTLMISRTPEVTCVVVSVSHEDPEVKFNWYVDGVEVHNAKTKPREEQYNSTYRVVSVLTVLHQDWLNGKEYKCKVSNKALPAPIEKTISKAKGQPREPQVYVLPPSRDELTKNQVSLLCLVKGFYPSDIAVEWESNGQPENNYLTWPPVLDSDGSFFLYSKLTVDKSRWQQGNVFSCSVMHEALHNHYTQKSLSLSPG
light: B10 light
notes: bivalent for CD3; also called 2x1 anti-(CD3xCD3xCLDN18.2) control
B12: v37664 (bispecific antibody)
heavy: QVQLVESGGGLVQPGGSLRLSCSVSGIDLSSNPMIWVRQAPGKGLQYIGIIDTDGSTYYADWAKGRFTISKDSTTVYLQINSPRAEDTAVYYCARRLHGSSNGYYDDLWGQGTLVTVSSGGGGSGGGGSGGGGSGGGGSDGQMTQSPSSVSASVGDRVTITCQASQSIYSYLSWYQQKPGQRPKLLIYKASTLASGVPSRFSGSGSGTDFTLTISSVQPEDFATYYCQQGYTVTNVDKNTFGGGTKVEIKGGGGSGEVQLVESGGGLVQPGGSLRLSCAASGVTFNYYGMSWIRQAPGKGLEWVASITSSGGRIYYPDSVKGRFTISRENTQKTLYLQMNSLRAEDTAVYYCTLDGRDGWVAYWGQGTLVTVSSASTKGPSVFPLAPSSKSTSGGTAALGCLVKDYFPEPVTVSWNSGALTSGVHTFPAVLQSSGLYSLSSVVTVPSSSLGTQTYICNVNHKPSNTKVDKKVEPKSCDKTHTCPPCPAPEAAGGPSVFLFPPKPKDTLMISRTPEVTCVVVSVSHEDPEVKFNWYVDGVEVHNAKTKPREEQYNSTYRVVSVLTVLHQDWLNGKEYKCKVSNKALPAPIEKTISKAKGQPREPQVYVLPPSRDELTKNQVSLLCLVKGFYPSDIAVEWESNGQPENNYLTWPPVLDSDGSFFLYSKLTVDKSRWQQGNVFSCSVMHEALHNHYTQKSLSLSPG
light: B10 light
Fc: not shown
notes: also called anti-(CLDN18.2xCD3) bispecific control
B13: v37667 (bispecific antibody)
heavy 1: not shown
heavy 2: B11 heavy 2
light: B10 light
notes: as for B11
B14: v37665 (bispecific antibody, human IgG1, kappa, L234A L235A)
heavy 1: not shown
heavy 2: B11 heavy 2
light: DIQMTQSPSSLSASVGDRVTITCRASESVEYYVTSLMQWYQQKPGKAPKLLIYAASNVDSGVPSRFSGSGSGTDFTLTISSLQPEDIATYYCQQSRKVPFTFGGGTKVEIKRTVAAPSVFIFPPSDEQLKSGTASVVCLLNNFYPREAKVQWKVDNALQSGNSQESVTEQDSKDSTYSLSSTLTLSKADYEKHKVYACEVTHQGLSSPVTKSFNRGEC
notes: 13B08 VH-VL scFv); also called anti-(CLDN18.2xCD28) bispecific control
B15: v37666 (bispecific antibody, human IgG1, kappa, L234A L235A)
heavy 1: not shown
heavy 2: B10 heavy 2
light: B14 light
notes: Fc without paratope; also called anti-(CLDN18.2xCD28) bispecific control

Target: huCD28 (human, UniProt P10747 19-152, limits assumed)
Experiment: SPR, OAA format

Binder	Fold-change from WT	Kd	koff	kon
B1	0.39 fold	0.0347 µM	0.00174 s⁻¹	50300 M⁻¹ s⁻¹
B2	0.61 fold	0.0538 µM	0.00319 s⁻¹	59200 M⁻¹ s⁻¹
B3	0.54 fold	0.0477 µM	0.0028 s⁻¹	58800 M⁻¹ s⁻¹
B4	0.59 fold	0.0517 µM	0.00311 s⁻¹	60500 M⁻¹ s⁻¹
B5	0.88 fold	0.0774 µM	0.00487 s⁻¹	63000 M⁻¹ s⁻¹
B6	0.84 fold	0.0737 µM	0.00573 s⁻¹	77900 M⁻¹ s⁻¹
B7	3.81 fold	0.335 µM	0.029 s⁻¹	86800 M⁻¹ s⁻¹
B8	1.51 fold	0.133 µM	0.00993 s⁻¹	76000 M⁻¹ s⁻¹
B9	0.66 fold	0.0578 µM	0.00349 s⁻¹	60800 M⁻¹ s⁻¹

Target: T1, Recombinant human CD3 epsilon/delta heterodimer, his tag protein (Acro Biosystems) (human, UniProt P07766 23-126; P04234 22-105)
T1 construct: bought
Experiment: SPR Biacore T200, CD3 e/d-his on CM5, construct injected, 1:1 model;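 further: measured at 25 °C in HEPES-buffered saline with EDTA and Tween 20 at pH 7.4, values are means of three independent runs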
Experimental: All SPR binding experiments were carried out using a BiacoreT200 instrument at 25° C. with 10 mM HEPES, 150 mM NaCl, 3 mM EDTA, and 0.05% Tween 20 at pH 7.4. Recombinant human CD3 epsilon/delta heterodimer, his tag protein (Acro Biosystems) was covalently immobilized on CM5 sensor chips by amine coupling. Purified antibody constructs to be tested were indirectly captured on the sensor chip by binding to the recombinant CD3 protein when injected at 30 μL/min for 140-500 s following a dissociation for 600-1200 s. Resultant kₒₙ, koff and KD values were determined from fitting the sensorgrams using the 1:1 binding model with reported values as the mean of three independent runs.

Binder	Kd	koff	kon
B10	0.16 µM	0.021 s⁻¹	134000 M⁻¹ s⁻¹
B11	0.00438 µM	0.00255 s⁻¹	589000 M⁻¹ s⁻¹
B12	0.127 µM	0.0228 s⁻¹	180000 M⁻¹ s⁻¹
B13	0.00593 µM	0.00778 s⁻¹	1.28e+06 M⁻¹ s⁻¹

Target: T2, Recombinant human/cynomolgus/rhesus macaque CD28 mouse IgG2a Fc fusion protein (Acro Biosystems) (human/cynomolgus/rhesus macaque, UniProt P10747 19-152)
T2 construct: bought; also called huCD28
Experiment: SPR Biacore T200, CD28-mIgG2a Fc on CM5, construct injected, 1:1 model;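 further: fc fusion captured by amine coupling, run at 25 °C in HEPES buffer pH 7.4, association 140-500 s then dissociation 600-1200 s, values averaged over three independent runs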

Binder	Kd	koff	kon
B14	0.0251 µM	0.00224 s⁻¹	89400 M⁻¹ s⁻¹
B10	0.434 µM	0.0132 s⁻¹	30400 M⁻¹ s⁻¹
B15	0.0324 µM	0.00217 s⁻¹	67300 M⁻¹ s⁻¹
